The numbers were not newly measured in paper PMC4271544, which cites them from elsewhere.

This data set addresses Capping protein (CP) (Homo sapiens) (UniProt P52907).

Consider V-1 (myotrophin) (from UniProt P58546), for which the Kd is 40 nM.

The term Kd denotes a measure of binding affinity in units of concentration.
